# According to doi:10.1101/2023.06.21.544075 (bioRxiv, 2023):
# Key:
# [1] = biological target: the molecule itself; test: SEC-MALS
# [2] = biological target: the molecule itself; test: crystal structure
Protein,stoichiometry N [1],stoichiometry N [2]
hOvst-cleaved hZP2-N1N2N3 (domain or fragment) chain 1: not shown chain 2: not shown,2,
"mouse ZP2 NTR ΔN1 construct mZP2-N2N3 (domain or fragment, UniProt P20239 135-360, looked up) PAIQAETHEISEIVVCRRDLISFSFPQLFSRLADENQNVSEMGWIVKIGNGTRAHILPLKDAIVQGFNLLIDSQKVTLHVPANATGIVHYVQESSYLYTVQLELLFSTTGQKIVFSSHAICAPDLSVACNATHMTLTIPEFPGKLESVDFGQWSIPEDQWHANGIDKEATNGLRLNFRKSLLKTKPSEKCPFYQFYLSSLKLTFYFQGNMLSTVIDPECHCESPVS",,2
